Measured values as given in patent US20170320919A1.
Where a chain is given by its changes, count along the chain named. Numbers in names are those of the source.

B1: D3(N10Q, N45A, N60Q)4-cys (designed binder)
chain: PKEEVTIKAQLIYADGKTQTAEFKGTFEEATAEAYRYADLLAKEAGKYTVDVADKGYTLQIKFAGKEKTPEEPKEEVTIKAQLIYADGKTQTAEFKGTFEEATAEAYRYADLLAKEAGKYTVDVADKGYTLQIKFAGKEKTPEEPKEEVTIKAQLIYADGKTQTAEFKGTFEEATAEAYRYADLLAKEAGKYTVDVADKGYTLQIKFAGKEKTPEEPKEEVTIKAQLIYADGKTQTAEFKGTFEEATAEAYRYADLLAKEAGKYTVDVADKGYTLQIKFAGKEKTPEEC
B2: D3(N10Q, N45A, N60Q)4 (designed binder)
chain: PKEEVTIKAQLIYADGKTQTAEFKGTFEEATAEAYRYADLLAKEAGKYTVDVADKGYTLQIKFAGKEKTPEEPKEEVTIKAQLIYADGKTQTAEFKGTFEEATAEAYRYADLLAKEAGKYTVDVADKGYTLQIKFAGKEKTPEEPKEEVTIKAQLIYADGKTQTAEFKGTFEEATAEAYRYADLLAKEAGKYTVDVADKGYTLQIKFAGKEKTPEEPKEEVTIKAQLIYADGKTQTAEFKGTFEEATAEAYRYADLLAKEAGKYTVDVADKGYTLQIKFAGKEKTPEE
B3: Protein L (protein)
chain: AIHNRAKEETPETPETDSEEEVTIKANLIFANGSTQTAEFKGTFEKATSEAYAYADTLKKDNGEYTVDVADKGYTLNIKFAGKEKTPEEPKEEVTIKANLIYADGKTQTAEFKGTFEEATAEAYRYADALKKDNGEYTVDVADKGYTLNIKFAGKEKTPEEPKEEVTIKANLIYADGKTQTAEFKGTFEEATAEAYRYADLLAKENGKYTVDVADKGYTLNIKFAGKEKTPEEPKEEVTIKANLIYADGKTQTAEFKGTFAEATAEAYRYADLLAKENGKYTADLEDGGYTINIRFAGKKVDEKPEE
B4: D3(N10Q, N45A, N60Q)2-cys (designed binder)
chain: PKEEVTIKAQLIYADGKTQTAEFKGTFEEATAEAYRYADLLAKEAGKYTVDVADKGYTLQIKFAGKEKTPEEPKEEVTIKAQLIYADGKTQTAEFKGTFEEATAEAYRYADLLAKEAGKYTVDVADKGYTLQIKFAGKEKTPEEC
B5: D3(N10Q, N45A, N60Q)2 (designed binder)
chain: PKEEVTIKAQLIYADGKTQTAEFKGTFEEATAEAYRYADLLAKEAGKYTVDVADKGYTLQIKFAGKEKTPEEPKEEVTIKAQLIYADGKTQTAEFKGTFEEATAEAYRYADLLAKEAGKYTVDVADKGYTLQIKFAGKEKTPEE
B6: D3(N10Q, N45A, N60Q)6 (designed binder)
chain: PKEEVTIKAQLIYADGKTQTAEFKGTFEEATAEAYRYADLLAKEAGKYTVDVADKGYTLQIKFAGKEKTPEEPKEEVTIKAQLIYADGKTQTAEFKGTFEEATAEAYRYADLLAKEAGKYTVDVADKGYTLQIKFAGKEKTPEEPKEEVTIKAQLIYADGKTQTAEFKGTFEEATAEAYRYADLLAKEAGKYTVDVADKGYTLQIKFAGKEKTPEEPKEEVTIKAQLIYADGKTQTAEFKGTFEEATAEAYRYADLLAKEAGKYTVDVADKGYTLQIKFAGKEKTPEEPKEEVTIKAQLIYADGKTQTAEFKGTFEEATAEAYRYADLLAKEAGKYTVDVADKGYTLQIKFAGKEKTPEEPKEEVTIKAQLIYADGKTQTAEFKGTFEEATAEAYRYADLLAKEAGKYTVDVADKGYTLQIKFAGKEKTPEE
B7: D3(N10Q, N45A, N60Q)6-cys (designed binder)
chain: PKEEVTIKAQLIYADGKTQTAEFKGTFEEATAEAYRYADLLAKEAGKYTVDVADKGYTLQIKFAGKEKTPEEPKEEVTIKAQLIYADGKTQTAEFKGTFEEATAEAYRYADLLAKEAGKYTVDVADKGYTLQIKFAGKEKTPEEPKEEVTIKAQLIYADGKTQTAEFKGTFEEATAEAYRYADLLAKEAGKYTVDVADKGYTLQIKFAGKEKTPEEPKEEVTIKAQLIYADGKTQTAEFKGTFEEATAEAYRYADLLAKEAGKYTVDVADKGYTLQIKFAGKEKTPEEPKEEVTIKAQLIYADGKTQTAEFKGTFEEATAEAYRYADLLAKEAGKYTVDVADKGYTLQIKFAGKEKTPEEPKEEVTIKAQLIYADGKTQTAEFKGTFEEATAEAYRYADLLAKEAGKYTVDVADKGYTLQIKFAGKEKTPEEC
B8: D3(Q19A)1 (designed binder)
chain: PKEEVTIKANLIYADGKTATAEFKGTFEEATAEAYRYADLLAKENGKYTVDVADKGYTLNIKFAGKEKTPEE
B9: D3(Q19E)1 (designed binder)
chain: B8 chain with A19E
B10: Domain 3 (D3) (protein)
chain: AQVPKEEVTIKANLIYADGKTQTAEFKGTFEEATAEAYRYADLLAKENGKYTVDVADKGYTLNIKFAGKEKTPEEC
B11: Domain 4 (D4) (protein)
chain: AQVPKEEVTIKANLIYADGKTQTAEFKGTFAEATAEAYRYADLLAKENGKYTADLEDGGYTINIRFAGKKVDEKPEEC
B12: D3(N45A)1 (designed binder)
chain: B8 chain with A19Q, N45A
B13: D3(N10Q, N45A, N60Q)1 (designed binder)
chain: B8 chain with N10Q, A19Q, N45A, N60Q
B14: D3(N45A, N60Q)1 (designed binder)
chain: B8 chain with A19Q, N45A, N60Q
B15: D3(N10Q, N45A)1 (designed binder)
chain: B8 chain with N10Q, A19Q, N45A
B16: Domain 2 (D2) (protein)
chain: B10 chain with T34A, L43A, A45K, E47D, K50E
B17: Domain 1 (D1) (protein)
chain: AQVSEEEVTIKANLIFANGSTQTAEFKGTFEKATSEAYAYADTLKKDNGEYTVDVADKGYTLNIKFAGKEKTPEEC
B18: Domain 3 tetramer (designed binder)
chain: PKEEVTIKANLIYADGKTQTAEFKGTFEEATAEAYRYADLLAKENGKYTVDVADKGYTLNIKFAGKEKTPEEPKEEVTIKANLIYADGKTQTAEFKGTFEEATAEAYRYADLLAKENGKYTVDVADKGYTLNIKFAGKEKTPEEPKEEVTIKANLIYADGKTQTAEFKGTFEEATAEAYRYADLLAKENGKYTVDVADKGYTLNIKFAGKEKTPEEPKEEVTIKANLIYADGKTQTAEFKGTFEEATAEAYRYADLLAKENGKYTVDVADKGYTLNIKFAGKEKTPEE

The binders below were run against human polyclonal IgG (Gammanorm) (human) (assay: SPR (Biacore), ligand amine-coupled to CM5 chip, 1 mg/ml IgG flowed; IgG binding signal left after 100 cycles of 100 mM NaOH, 10 min).

Retained capacity after 100 cycles (%) | Binder
54 | B1
60 | B2
23 | B3
59 | B4
59 | B5
58 | B6
56 | B7

Each binder was assayed against human polyclonal IgG (Gammanorm) (human) (assay: SPR (Biacore), retained IgG binding capacity after 96 NaOH cycles against reference Domain 3 (second series)).

Sample/ref. ratio | Binder
1 | B8
1.11 | B9
1 | B10

Each binder was assayed against Purified Dab prepared from heat-treated E. coli supernatant (assay: column chromatography, ligand coupled to agarose beads at 9.5 mg/ml, 1 mg/ml Dab feed, residence time 4 min).

QB10 Dab (dynamic binding capacity at 10% breakthrough) [mg/mL] | Binder
15.4 | B5

These binders were tested against Purified Fab prepared from a papain-digested IgG mAb (assay: column chromatography, ligand coupled to agarose beads at 11.0 mg/ml, 1 mg/ml Fab feed, residence time 4 min).

QB10 Fab (dynamic binding capacity at 10% breakthrough) [mg/mL] | Binder
21.1 | B6

The binders below were run against human polyclonal IgG (Gammanorm) (human) (assay: SPR (Biacore), retained IgG binding capacity after 96 NaOH cycles against reference Domain 3).

Sample/ref. ratio | Binder
0.84 | B11
1.42 | B12
1.9 | B13
1.9 | B14
1.55 | B15
1 | B10
0.71 | B16
0.42 | B17

Each binder was assayed against human polyclonal IgG (Gammanorm) (human) (assay: SPR (Biacore), retained IgG binding capacity after 100 NaOH cycles against reference Protein L).

Sample/ref. ratio | Binder
2.35 | B1
2.61 | B2
1 | B3
2.56 | B4
2.56 | B5
2.52 | B6
2.43 | B7

The binders below were run against Purified Dab prepared from heat-treated E. coli supernatant (assay: column chromatography, ligand coupled to agarose beads at 8.8 mg/ml, 1 mg/ml Dab feed, residence time 4 min).

QB10 Dab (dynamic binding capacity at 10% breakthrough) [mg/mL] | Binder
15.9 | B2

These binders were tested against Purified Dab prepared from heat-treated E. coli supernatant (assay: column chromatography, ligand coupled to agarose beads at 11.0 mg/ml, 1 mg/ml Dab feed, residence time 4 min).

QB10 Dab (dynamic binding capacity at 10% breakthrough) [mg/mL] | Binder
16.7 | B6

The binders below were run against human polyclonal IgG (Gammanorm) (human) (assay: SPR (Biacore), ligand amine-coupled to CM5 chip, 1 mg/ml IgG flowed; IgG binding signal left after 96 cycles of 100 mM NaOH, 10 min (second series, with the Q19 mutants)).

Retained capacity after 96 cycles (%) | Binder
28 | B10

These binders were tested against human polyclonal IgG (Gammanorm) (human) (assay: SPR (Biacore), retained IgG binding capacity after 96 NaOH cycles against reference Protein L).

Sample/ref. ratio | Binder
1.36 | B18
1 | B3

The binders below were run against human polyclonal IgG (Gammanorm) (human) (assay: SPR (Biacore), ligand amine-coupled to CM5 chip, 1 mg/ml IgG flowed; IgG binding signal left after 96 cycles of 100 mM NaOH, 10 min).

Retained capacity after 96 cycles (%) | Binder
38 | B18
28 | B3
26 | B11
44 | B12
59 | B13
28 | B8
59 | B14
31 | B9
48 | B15
31 | B10
22 | B16
13 | B17

What follows are binders tested against Purified Fab prepared from a papain-digested IgG mAb (assay: column chromatography, ligand coupled to agarose beads at 8.8 mg/ml, 1 mg/ml Fab feed, residence time 4 min).

QB10 Fab (dynamic binding capacity at 10% breakthrough) [mg/mL] | Binder
19.3 | B2

What follows are binders tested against Purified Fab prepared from a papain-digested IgG mAb (assay: column chromatography, ligand coupled to agarose beads at 9.5 mg/ml, 1 mg/ml Fab feed, residence time 4 min).

QB10 Fab (dynamic binding capacity at 10% breakthrough) [mg/mL] | Binder
19.3 | B5
